# B1: chorismate synthase from M. tuberculosis (enzyme)
# chain: MLRWITAGESHGRALVAVVEGMVAGVHVTSADIADQLARRRLGYGRGARMTFERDAVTVLSGIRHGSTLGGPIAIEIGNTEWPKWETVMAADPVDPAELADVARNAPLTRPRPGHADYAGMLKYGFDDARPVLERASARETAARVAAGTVARAFLRQALGVEVLSHVISIGASAPYEGPPPRAEDLPAIDASPVRAYDKAAEADMIAQIEAAKKDGDTLGGVVEAVALGLPVGLGSFTSGDHRLDSQLAAAVMGIQAIKGVEIGDGFQTARRRGSRAHDEMYPGPDGVVRSTNRAGGLEGGMTNGQPLRVRAAMKPISTVPRALATVDLATGDEAVAIHQRSDVCAVPAAGVVVETMVALVLARAALEKFGGDSLAETQRNIAAYQRSVADREAPAARVSG
# notes: also called MtCS; CS
# Molecular target: the molecule itself
# Assay: SEC
protein,measurement,value
B1,stoichiometry N,2
